Reference: the RNAGym collection of RNA variant scans (doi:10.1093/molbev/msab373)

B1: Azoarcus group I ribozyme (parent)
chain: GUGCCUUGCGCCGGGAAACCACGCAAGGGAUGGUGUCAAAUUCGGCGAAACCUAAGCGCCCGCCCGGGCGUAUGGCAACGCCGAGCCAAGCUUCGGCGCCUGCGCCGAUGAAGGUGUAGAGACUAGACGGCACCCACCUAAGGCAAACGCUAUGGUGAAGGCAUAGUCCAGGGAGUGGCGAAAGUCACACAAACCGG

Variants of: B1
Assay: reverse-splicing fitness (ratio to wild type); higher = more active; in vitro selection; Mg2+ level not given
Procedure, shortened: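 An in vitro group I ribozyme library with randomized positions was T7-transcribed and gel-purified. In triplicate, 10 pmol RNA in EPPS pH 7.5 was reacted with 50 pmoles of a 30-nt RNA substrate for 1 h at 37 °C across several added MgCl2 levels (1–48 mM), then stopped with EDTA. Products were reverse transcribed from a substrate-complementary primer, PCR-amplified and sequenced (HiSeq 4000). Fitness is a variant's read proportion after selection over that before, normalised to wild type.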

Variant	reverse-splicing fitness
A111U A145U C150U C169G	0.0415
A111U A145U C150U C169G U176A	0.016
A111U A145U C150U C169G U176C	0.0192
A111U A145U C150U C169G U176G	0.00643
A111U A145U C150U C169U	0.0705
A111U A145U C150U C169U U176A	0.022
A111U A145U C150U C169U U176C	0.0268
A111U A145U C150U C169U U176G	0.00684
A111U A145U C150U U176A	0.632
A111U A145U C150U U176C	0.641
A111U A145U C150U U176G	0.266
A111U A145U C169A	0.0323
A111U A145U C169A U176A	0.0113
A111U A145U C169A U176C	0.0115
A111U A145U C169A U176G	0.00631
A111U A145U C169G	0.0652
A111U A145U C169G U176A	0.016
A111U A145U C169G U176C	0.0214
A111U A145U C169G U176G	0.00562
A111U A145U C169U	0.109
A111U A145U C169U U176A	0.0258

Variant	reverse-splicing fitness
A111U A145U C169U U176C	0.0326
A111U A145U C169U U176G	0.00639
A111U A145U U176A	0.747
A111U A145U U176C	0.767
A111U A145U U176G	0.364
A111U C150A	0.372
A111U C150A C169A	0.0111
A111U C150A C169A U176A	0.0182
A111U C150A C169A U176C	0.0168
A111U C150A C169A U176G	0.00646
A111U C150A C169G	0.0124
A111U C150A C169G U176A	0.0165
A111U C150A C169G U176C	0.0236
A111U C150A C169G U176G	0.00571
A111U C150A C169U	0.0167
A111U C150A C169U U176A	0.0201
A111U C150A C169U U176C	0.0188
A111U C150A C169U U176G	0.00721
A111U C150A U176A	0.207
A111U C150A U176C	0.251
A111U C150A U176G	0.0846

Variant	reverse-splicing fitness
A111U C150G	0.308
A111U C150G C169A	0.00956
A111U C150G C169A U176A	0.0102
A111U C150G C169A U176C	0.0111
A111U C150G C169A U176G	0.00689
A111U C150G C169G	0.00998
A111U C150G C169G U176A	0.00681
A111U C150G C169G U176C	0.00465
A111U C150G C169G U176G	0.00515
A111U C150G C169U	0.0141
A111U C150G C169U U176A	0.00776
A111U C150G C169U U176C	0.0145
A111U C150G C169U U176G	0.00634
A111U C150G U176A	0.0805
A111U C150G U176C	0.124
A111U C150G U176G	0.0165
A111U C150U	0.89
A111U C150U C169A	0.02
A111U C150U C169A U176A	0.015
A111U C150U C169A U176C	0.0138
A111U C150U C169A U176G	0.00669

Variant	reverse-splicing fitness
A111U C150U C169G	0.0372
A111U C150U C169G U176A	0.0177
A111U C150U C169G U176C	0.0215
A111U C150U C169G U176G	0.00719
A111U C150U C169U	0.0631
A111U C150U C169U U176A	0.0262
A111U C150U C169U U176C	0.0237
A111U C150U C169U U176G	0.00705
A111U C150U U176A	0.6
A111U C150U U176C	0.638
A111U C150U U176G	0.251
A111U C169A	0.0292
A111U C169A U176A	0.0172
A111U C169A U176C	0.0214
A111U C169A U176G	0.00592
A111U C169G	0.0649
A111U C169G U176A	0.02
A111U C169G U176C	0.0333
A111U C169G U176G	0.00596
A111U C169U	0.103
